Laboratory results as given in patent publication US20240270821A1, “GIP/GLP1/GCG TRI-RECEPTOR AGONISTS AND USES THEREOF” (priority 2023, published 2024).
Positions count from the first letter of the chain named.

T1: human GIP receptor (human) (UniProt P48546)
T1 sequence (looked up): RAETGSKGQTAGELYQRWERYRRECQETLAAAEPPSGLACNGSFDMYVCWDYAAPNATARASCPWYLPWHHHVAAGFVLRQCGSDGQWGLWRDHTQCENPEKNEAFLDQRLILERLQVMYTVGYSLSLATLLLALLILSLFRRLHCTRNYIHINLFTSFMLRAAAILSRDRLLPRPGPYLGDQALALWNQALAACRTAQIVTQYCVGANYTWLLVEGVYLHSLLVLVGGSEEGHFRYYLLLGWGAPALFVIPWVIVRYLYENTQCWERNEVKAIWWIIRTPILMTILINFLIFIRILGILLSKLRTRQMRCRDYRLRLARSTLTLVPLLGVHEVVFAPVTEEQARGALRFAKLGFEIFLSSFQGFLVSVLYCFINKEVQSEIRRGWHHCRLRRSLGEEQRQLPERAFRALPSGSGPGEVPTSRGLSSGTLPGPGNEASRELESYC

B1: Example 638 (peptide)
chain: YXQGTXTSDXSIXLDKKAQXXFIEYLTEGGPSSGEPPPSGSEE
modifications: Aib, αMeF(2F), 4Pal, αMeL, Orn; γGlu2-C18 diacid Lys; amide; synthetic construct; SITE 2: note = 2-Aminoisobutyric Acid; SITE 6: note = alpha-methyl-2-fluoro-L-phenylalanine; SITE 10: note = 3-(4-Pyridyl)-L-alanine; SITE 13: note = alpha-methyl-leucine; SITE 17: note = Lysine is chemically modified through conjugation of the epsilon-amino group of the Lysine
B2: Example 636 (peptide)
chain: B1 chain with T27A
modifications: non-natural residues; C18 diacid-(γ-Glu)2 acyl on Lys; C-terminal amide; synthetic construct; SITE 2: note = 2-Aminoisobutyric Acid; SITE 6: note = alpha-methyl-2-fluoro-L-phenylalanine; SITE 10: note = 3-(4-Pyridyl)-L-alanine; SITE 13: note = alpha-methyl-leucine; SITE 17: note = Lysine is chemically modified through conjugation of the epsilon-amino group of the Lysine
B3: Example 630 (peptide)
chain: B1 chain with X21A, T27E
modifications: non-natural residues; lipidated Lys; C-terminal amide; synthetic construct; SITE 2: note = 2-Aminoisobutyric Acid; SITE 6: note = alpha-methyl-2-fluoro-L-phenylalanine; SITE 10: note = 3-(4-Pyridyl)-L-alanine; SITE 13: note = alpha-methyl-leucine; SITE 17: note = Lysine is chemically modified through conjugation of the epsilon-amino group of the Lysine
B4: Example 626 (peptide)
chain: YXQGTXTSDXSIXLDKKAQXAFIEYLEEGGPSSGAPPPEGTGE
modifications: non-natural residues, (γGlu)2-diacid acylated Lys, C-terminal amide; synthetic construct; SITE 2: note = 2-Aminoisobutyric Acid; SITE 6: note = alpha-methyl-2-fluoro-L-phenylalanine; SITE 10: note = 3-(4-Pyridyl)-L-alanine; SITE 13: note = alpha-methyl-leucine; SITE 17: note = Lysine is chemically modified through conjugation of the epsilon-amino group of the Lysine
B5: Example 637 (peptide)
chain: B1 chain with T27S
modifications: Aib, αMeF(2F), 4Pal, Orn; acylated lysine; amide; synthetic construct; SITE 2: note = 2-Aminoisobutyric Acid; SITE 6: note = alpha-methyl-2-fluoro-L-phenylalanine; SITE 10: note = 3-(4-Pyridyl)-L-alanine; SITE 13: note = alpha-methyl-leucine; SITE 17: note = Lysine is chemically modified through conjugation of the epsilon-amino group of the Lysine
B6: Example 632 (peptide)
chain: B1 chain with X21A, T27S
modifications: Aib, αMeF(2F), 4Pal, αMeL, acylated K, C-terminal amide; synthetic construct; SITE 2: note = 2-Aminoisobutyric Acid; SITE 6: note = alpha-methyl-2-fluoro-L-phenylalanine; SITE 10: note = 3-(4-Pyridyl)-L-alanine; SITE 13: note = alpha-methyl-leucine; SITE 17: note = Lysine is chemically modified through conjugation of the epsilon-amino group of the Lysine
B7: Example 612 (peptide)
chain: B4 chain with X13L, E39S, T41G, G42E
modifications: Aib, alpha-methyl-2F-Phe, 4Pal, lipidated Lys, amide; synthetic construct; SITE 2: note = 2-Aminoisobutyric Acid; SITE 6: note = alpha-methyl-2-fluoro-L-phenylalanine; SITE 10: note = 3-(4-Pyridyl)-L-alanine; SITE 17: note = Lysine is chemically modified through conjugation of the epsilon-amino group of the Lysine side chain with (gamma-Glu)2-CO-(CH2)1
B8: Example 633 (peptide)
chain: B1 chain with X21A
modifications: non-natural residues, C18 diacid acylation, C-terminal amide; synthetic construct; SITE 2: note = 2-Aminoisobutyric Acid; SITE 6: note = alpha-methyl-2-fluoro-L-phenylalanine; SITE 10: note = 3-(4-Pyridyl)-L-alanine; SITE 13: note = alpha-methyl-leucine; SITE 17: note = Lysine is chemically modified through conjugation of the epsilon-amino group of the Lysine
B9: Example 59 (peptide)
chain: YXQGTFTSDFSXXLDKKAQXAFIEYLLEGGPSSGEPPPSEG
modifications: synthetic construct; SITE 2: note = 2-Aminoisobutyric Acid; SITE 12: note = L-ornithine; SITE 13: note = alpha-methyl-leucine; SITE 17: note = Lysine is chemically modified through conjugation of the epsilon-amino group of the Lysine side chain with (2-[2-(2-Amino-ethoxy)-ethoxy]-acetyl)-(gamma-Glu)
B10: Example 60 (peptide)
chain: B9 chain with E28A, E35A
modifications: synthetic construct; SITE 2: note = 2-Aminoisobutyric Acid; SITE 12: note = L-ornithine; SITE 13: note = alpha-methyl-leucine; SITE 17: note = Lysine is chemically modified through conjugation of the epsilon-amino group of the Lysine side chain with (2-[2-(2-Amino-ethoxy)-ethoxy]-acetyl)-(gamma-Glu)
B11: Example 613 (peptide)
chain: YXQGTXTSDXSIXLDXKAQXEFIEXLLEGGPSSGAPPPSGE
modifications: Aib, αMeF(2F), 4Pal, Orn, (AEEA)2-γGlu-C18 diacid, amide; synthetic construct; SITE 2: note = 2-Aminoisobutyric Acid; SITE 6: note = alpha-methyl-2-fluoro-L-phenylalanine; SITE 10: note = 3-(4-Pyridyl)-L-alanine; SITE 13: note = alpha-methyl-leucine; SITE 16: note = L-ornithine; SITE 17: note = Lysine is chemically modified through conjugation of the epsil
B12: Example 616 (peptide)
chain: B11 chain with L27I
modifications: non-natural residues; acylated Lys; C-terminal amide; synthetic construct; SITE 2: note = 2-Aminoisobutyric Acid; SITE 6: note = alpha-methyl-2-fluoro-L-phenylalanine; SITE 10: note = 3-(4-Pyridyl)-L-alanine; SITE 13: note = alpha-methyl-leucine; SITE 16: note = L-ornithine; SITE 17: note = Lysine is chemically modified through conjugation of the epsil
B13: Example 615 (peptide)
chain: B11 chain
modifications: Aib, αMeF(2F), 4Pal, Orn, Me4Pal, αMeY; acylated lysine; amide; synthetic construct; SITE 2: note = 2-Aminoisobutyric Acid; SITE 6: note = alpha-methyl-2-fluoro-L-phenylalanine; SITE 10: note = 3-(4-Pyridyl)-L-alanine; SITE 13: note = alpha-methyl-leucine; SITE 16: note = L-ornithine; SITE 17: note = Lysine is chemically modified through conjugation of the epsil
B14: Example 614 (peptide)
chain: B11 chain with L27I
modifications: non-natural residues, acylated Lys, C-terminal amide; synthetic construct; SITE 2: note = 2-Aminoisobutyric Acid; SITE 6: note = alpha-methyl-2-fluoro-L-phenylalanine; SITE 10: note = 3-(4-Pyridyl)-L-alanine; SITE 13: note = alpha-methyl-leucine; SITE 16: note = L-ornithine; SITE 17: note = Lysine is chemically modified through conjugation of the epsil

Columns and labels:
Assay in all cases: cell-based or functional assay
[1] = target: T1, human GIP receptor (human)
[2] = target: human glucagon receptor (human) (UniProt P47871)
Chain of human glucagon receptor (human) (P47871 26-477): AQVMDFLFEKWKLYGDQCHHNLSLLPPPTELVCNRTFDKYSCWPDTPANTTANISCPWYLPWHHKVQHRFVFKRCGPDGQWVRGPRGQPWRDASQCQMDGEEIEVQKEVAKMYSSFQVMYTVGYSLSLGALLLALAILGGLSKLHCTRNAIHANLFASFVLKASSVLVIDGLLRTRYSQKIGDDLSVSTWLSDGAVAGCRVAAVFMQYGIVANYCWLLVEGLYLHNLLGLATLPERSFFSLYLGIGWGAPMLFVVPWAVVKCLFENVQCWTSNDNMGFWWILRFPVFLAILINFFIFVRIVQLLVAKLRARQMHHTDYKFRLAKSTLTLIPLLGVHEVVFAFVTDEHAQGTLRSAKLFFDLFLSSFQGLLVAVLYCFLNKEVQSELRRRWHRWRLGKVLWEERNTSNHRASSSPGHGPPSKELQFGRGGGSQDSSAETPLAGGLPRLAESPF

[3] = target: hGLP-1R (Homo sapiens, UniProt P43220)
Chain of hGLP-1R (P43220 24-463): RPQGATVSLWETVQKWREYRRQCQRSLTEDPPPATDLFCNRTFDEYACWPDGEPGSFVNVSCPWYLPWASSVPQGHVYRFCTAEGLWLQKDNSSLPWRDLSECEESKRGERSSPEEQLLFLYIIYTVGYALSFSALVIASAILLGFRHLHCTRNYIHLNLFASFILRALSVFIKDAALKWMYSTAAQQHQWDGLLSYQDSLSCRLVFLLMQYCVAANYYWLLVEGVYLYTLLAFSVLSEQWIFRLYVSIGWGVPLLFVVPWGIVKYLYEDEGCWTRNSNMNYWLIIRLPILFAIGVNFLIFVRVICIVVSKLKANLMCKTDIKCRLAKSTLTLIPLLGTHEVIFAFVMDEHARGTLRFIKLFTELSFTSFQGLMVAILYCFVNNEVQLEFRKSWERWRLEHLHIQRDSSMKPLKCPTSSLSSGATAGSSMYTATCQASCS

Row | Binder | Relative cAMP EC50 [1] | cAMP Rel EC50 (in the presence of 1% HSA) [1] | Relative cAMP EC50 [2] | cAMP Rel EC50 (in the presence of 1% HSA) [2] | Relative cAMP EC50 [3] | cAMP Rel EC50 (in the presence of 1% HSA) [3] | cAMP Rel EC50, nM (in the presence of 1% HSA) [1] | cAMP Rel EC50, nM (in the presence of 1% HSA) [2] | cAMP Rel EC50, nM (in the presence of 1% HSA) [3]
1 | B1 | 0.0354 nM | 2.39 nM | 14 nM | 1090 nM | 0.4 nM | 36 nM | – | – | –
2 | B2 | 0.054 nM | 4.3 nM | 9.28 nM | 935 nM | 0.504 nM | 36.6 nM | – | – | –
3 | B3 | 0.0233 nM | 2.96 nM | 8.07 nM | 872 nM | 0.762 nM | 74.5 nM | – | – | –
4 | B4 | 0.0192 nM | 1.75 nM | 8.72 nM | 546 nM | 0.889 nM | 60.8 nM | – | – | –
5 | B5 | 0.108 nM | 7.23 nM | 11.7 nM | 968 nM | 1.08 nM | 76.2 nM | – | – | –
6 | B6 | 0.068 nM | 5.48 nM | 13.5 nM | 1600 nM | 0.951 nM | 88.2 nM | – | – | –
7 | B7 | 0.087 nM | 7.58 nM | 7.13 nM | 640 nM | 1.21 nM | 126 nM | – | – | –
8 | B8 | 0.0186 nM | 1.63 nM | 10.2 nM | 1500 nM | 0.421 nM | 41.2 nM | – | – | –
9 | B9 | 0.54 nM | – | 6.57 nM | – | 4.8 nM | – | 166 nM | 2160 nM | 1370 nM
10 | B10 | 0.135 nM | – | 8.96 nM | – | 1.93 nM | – | 33 nM | 1210 nM | 409 nM
11 | B11 | 0.00925 nM | 0.791 nM | 20.4 nM | 1410 nM | 0.698 nM | 81.6 nM | – | – | –
12 | B12 | 0.00727 nM | 0.467 nM | 6.58 nM | 734 nM | 0.29 nM | 28.9 nM | – | – | –
13 | B13 | 0.00825 nM | 0.95 nM | 3.93 nM | 697 nM | 0.575 nM | 82.9 nM | – | – | –
14 | B14 | 0.0065 nM | 0.597 nM | 6.36 nM | 724 nM | 0.251 nM | 33.2 nM | – | – | –
